Data published in IntAct's records for PubMed 21743455.

B1: Wnt inhibitory factor 1 (Homo sapiens), Q9Y5W5 (parent)
chain: MARRSAFPAAALWLWSILLCLLALRAEAGPPQEESLYLWIDAHQARVLIGFEEDILIVSEGKMAPFTHDFRKAQQRMPAIPVNIHSMNFTWQAAGQAEYFYEFLSLRSLDKGIMADPTVNVPLLGTVPHKASVVQVGFPCLGKQDGVAAFEVDVIVMNSEGNTILQTPQNAIFFKTCQQAECPGGCRNGGFCNERRICECPDGFHGPHCEKALCTPRCMNGGLCVTPGFCICPPGFYGVNCDKANCSTTCFNGGTCFYPGKCICPPGLEGEQCEISKCPQPCRNGGKCIGKSKCKCSKGYQGDLCSKPVCEPGCGAHGTCHEPNKCQCQEGWHGRHCNKRYEASLIHALRPAGAQLRQHTPSLKKAEERRDPPESNYIW

Variants of: B1
Details: with wnt3a_mouse Wnt3a

| effect of a mutation on the interaction | Variant |
| --- | --- |
| decreasing interaction | M77W |
